B1: sentrin-1 (1-70) (yeast two-hybrid) (other)
chain: MSDQEAKPSTEDLGDKKQGEYIKLKVIGQDSSEIHFKVKMTTHLKKLKESYCQRQGVPMNSLRFLFEGQR
notes: also called deletion of the C-terminal 31 amino acids; not shown: GAL4 fusion domain of the two-hybrid vector
B2: Sentrin-1 with substitution of Ala-Ala for Gly-Gly (yeast two-hybrid) (other)
chain: MSDQEAKPSTEDLGDKKQGEYIKLKVIGQDSSEIHFKVKMTTHLKKLKESYCQRQGVPMNSLRFLFEGQRIADNHTPKELGMEEEDVIEVYQEQTAAHSTV
notes: not shown: GAL4 fusion domain of the two-hybrid vector
B3: The N-terminal 23 amino acids of sentrin-1 (yeast two-hybrid) (peptide)
chain: MSDQEAKPSTEDLGDKKQGEYIK
notes: Range worked out from the words: the N-terminal 23 amino acids; also called sentrin-1 (1-23); not shown: GAL4 fusion domain of the two-hybrid vector
B4: sentrin-1 (24-101) (yeast two-hybrid) (other)
chain: LKVIGQDSSEIHFKVKMTTHLKKLKESYCQRQGVPMNSLRFLFEGQRIADNHTPKELGMEEEDVIEVYQEQTGGHSTV
notes: also called deletion of the N terminal 23 amino acids; not shown: GAL4 fusion domain of the two-hybrid vector
B5: UbCH6 (yeast two-hybrid) (enzyme, human, UniProt P51965 1-193, looked up)
chain: MSDDDSRASTSSSSSSSSNQQTEKETNTPKKKESKVSMSKNSKLLSTSAKRIQKELADITLDPPPNCSAGPKGDNIYEWRSTILGPPGSVYEGGVFFLDITFTPEYPFKPPKVTFRTRIYHCNINSQGVICLDILKDNWSPALTISKVLLSICSLLTDCNPADPLVGSIATQYMTNRAEHDRMARQWTKRYAT
notes: as for B2
B6: E2-EPF (yeast two-hybrid) (enzyme, human, UniProt Q16763 1-222, looked up)
chain: MNSNVENLPPHIIRLVYKEVTTLTADPPDGIKVFPNEEDLTDLQVTIEGPEGTPYAGGLFRMKLLLGKDFPASPPKGYFLTKIFHPNVGANGEICVNVLKRDWTAELGIRHVLLTIKCLLIHPNPESALNEEAGRLLLENYEEYAARARLLTEIHGGAGGPSGRAEAGRALASGTEASSTDPGAPGGPGGAEGPMAKKHAGERDKKLAAKKKTDKKRALRRL
notes: as for B2

What follows are binders tested against T1, Full-length human Ubc9 in pGAD424 (GAL4 activation domain fusion) (human, UniProt P04386 768-881; P63279 1-158) (assay: yeast two-hybrid).
T1 construct: also called human ubiquitin conjugating enzyme

| Binder | binding result |
| --- | --- |
| B1 | no binding |
| B2 | no binding |
| B3 | no binding |
| B4 | binds |

The binders below were run against T2, Gal-4-sentrin-1 (pGBT9-sentrin-1, full-length sentrin-1 fused to the GAL4 DNA-binding domain) (human, UniProt P04386 1-147 (Saccharomyces cerevisiae entry)) (assay: yeast two-hybrid).
T2 construct: also called wild type sentrin-1; sentrin-1 bait

| Binder | binding result |
| --- | --- |
| B5 | no binding |
| B6 | no binding |

Reference: US7179650 (University of Texas, dated 2007)
